The values below come from patent EP4610277A1 (Daiichi Sankyo Company, Limited, dated 2025).

Assay [1] deals with T1, recombinant KIR2DL1 (extracellular domain-Fc-Avi, in-house) (human).
T1 construct: IL-2 signal peptide left out; also called soluble KIR2DL1
Briefly: flow cytometry, KIR-Fc 0.1 µM on scFv-K562 cells.

In assay [2] the target is T2, LILRB1 (Fc, R&D system 2017-T2-050) (UniProt Q8NHL6 24-458).
T2 construct: Bought Fc-tagged protein
Kind of assay: flow cytometry, tagged protein on scFv-K562 cells.

For assay [3], the target named is T3, CD161 (Fc, R&D system 7448-CD-050) (UniProt Q12918 67-225).
T3 construct: Bought Fc-tagged protein
Kind of assay: flow cytometry, tagged protein on scFv-K562 cells.

The target in assay [4] is KIR2DS3 (Fc, prepared in-house) (UniProt Q14952 22-245, limits assumed). Kind of assay: flow cytometry, tagged protein on scFv-K562 cells.
Assay [5] addresses T4, TIGIT (Fc, R&D system 9464-TG-050) (UniProt Q495A1 22-141).
T4 construct: Bought Fc-tagged protein
T4 sequence (looked up): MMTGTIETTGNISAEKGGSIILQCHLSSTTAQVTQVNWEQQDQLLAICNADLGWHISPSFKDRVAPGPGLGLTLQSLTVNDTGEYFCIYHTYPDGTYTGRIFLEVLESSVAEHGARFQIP
Kind of assay: flow cytometry, tagged protein on scFv-K562 cells.

For assay [6], the target named is T5, NKG2A (Fc, R&D system 10511-NK-050) (UniProt P26715 94-233, limits assumed).
T5 construct: Bought Fc-tagged protein
T5 sequence (P26715 94-233 limits assumed): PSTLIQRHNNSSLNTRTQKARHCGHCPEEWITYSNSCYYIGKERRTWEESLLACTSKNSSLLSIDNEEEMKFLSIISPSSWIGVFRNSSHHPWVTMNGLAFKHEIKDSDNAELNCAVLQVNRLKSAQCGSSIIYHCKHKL
Kind of assay: flow cytometry, tagged protein on scFv-K562 cells.

Assay [7] deals with T6, CD32a (Fc, R&D system 1330-CD-050) (UniProt P12318 36-218).
T6 sequence (looked up): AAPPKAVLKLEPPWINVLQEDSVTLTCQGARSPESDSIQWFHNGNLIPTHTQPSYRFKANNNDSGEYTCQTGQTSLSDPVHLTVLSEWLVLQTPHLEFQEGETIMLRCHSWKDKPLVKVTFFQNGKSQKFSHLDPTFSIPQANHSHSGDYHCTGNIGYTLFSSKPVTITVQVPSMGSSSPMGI
Kind of assay: flow cytometry, tagged protein on scFv-K562 cells.

Assay [8] deals with CD64 (Fc, R&D system 1257-FC-050) (UniProt P12314 16-288). Briefly: flow cytometry, tagged protein on scFv-K562 cells.
Chain of CD64 (Fc, R&D system 1257-FC-050) (P12314 16-288 limits assumed): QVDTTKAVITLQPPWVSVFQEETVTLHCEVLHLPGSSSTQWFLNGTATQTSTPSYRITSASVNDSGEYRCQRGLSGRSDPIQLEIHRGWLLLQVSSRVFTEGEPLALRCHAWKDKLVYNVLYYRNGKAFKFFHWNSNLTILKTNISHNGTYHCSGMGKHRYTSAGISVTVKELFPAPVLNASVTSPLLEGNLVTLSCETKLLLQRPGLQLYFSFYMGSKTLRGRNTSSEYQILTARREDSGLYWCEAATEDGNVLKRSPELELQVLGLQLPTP
In assay [9] the target is T7, CD32b/c (Fc, R&D system 1875-CD-050) (UniProt P31994 46-217).
T7 sequence (looked up): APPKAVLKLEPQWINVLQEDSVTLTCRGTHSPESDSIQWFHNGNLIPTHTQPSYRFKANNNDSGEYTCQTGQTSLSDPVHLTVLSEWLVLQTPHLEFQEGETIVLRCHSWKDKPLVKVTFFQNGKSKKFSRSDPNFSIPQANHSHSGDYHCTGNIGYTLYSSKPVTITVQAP
Briefly: flow cytometry, tagged protein on scFv-K562 cells.

Assay [10] has as its target T8, KIR3DL1 (Fc, R&D system 1225-KR-050) (UniProt P43629 22-340).
T8 construct: Bought Fc-tagged protein
Briefly: flow cytometry, tagged protein on scFv-K562 cells.

Assay [11] addresses T9, NKG2D (Fc, R&D system 1299-NK-050) (UniProt P26718 78-216).
T9 construct: Bought Fc-tagged protein
T9 sequence (looked up): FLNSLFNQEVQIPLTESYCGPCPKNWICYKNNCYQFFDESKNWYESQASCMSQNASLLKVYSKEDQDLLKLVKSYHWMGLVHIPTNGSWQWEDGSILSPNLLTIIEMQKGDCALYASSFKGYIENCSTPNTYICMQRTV
Kind of assay: flow cytometry, tagged protein on scFv-K562 cells.

In assay [12] the target is T10, recombinant human KIR3DS1/CD158e2 Fc chimera protein (4136-KR-050, R&D Systems) (human, UniProt Q14943 22-340, limits assumed).
T10 construct: Bought Fc chimera; also called soluble KIR3DS1; recombinant KIR3DS1
T10 sequence (Q14943 22-340 limits assumed, change not shown): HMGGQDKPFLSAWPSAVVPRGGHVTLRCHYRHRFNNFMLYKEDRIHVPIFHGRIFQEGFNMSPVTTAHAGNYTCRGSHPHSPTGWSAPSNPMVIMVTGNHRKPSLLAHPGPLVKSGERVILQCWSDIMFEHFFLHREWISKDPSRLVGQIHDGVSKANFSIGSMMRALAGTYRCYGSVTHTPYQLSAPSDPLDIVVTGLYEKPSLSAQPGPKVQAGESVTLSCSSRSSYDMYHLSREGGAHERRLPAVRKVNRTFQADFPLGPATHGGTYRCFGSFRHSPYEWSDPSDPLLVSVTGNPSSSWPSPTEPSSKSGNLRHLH
Briefly: flow cytometry, tagged protein on scFv-K562 cells.

For assay [13], the target named is T11, LILRB2 (His, R&D system 8429-T4-050) (UniProt Q8N423 22-458).
T11 construct: Bought His-tagged protein
T11 sequence (Q8N423 22-458 limits assumed): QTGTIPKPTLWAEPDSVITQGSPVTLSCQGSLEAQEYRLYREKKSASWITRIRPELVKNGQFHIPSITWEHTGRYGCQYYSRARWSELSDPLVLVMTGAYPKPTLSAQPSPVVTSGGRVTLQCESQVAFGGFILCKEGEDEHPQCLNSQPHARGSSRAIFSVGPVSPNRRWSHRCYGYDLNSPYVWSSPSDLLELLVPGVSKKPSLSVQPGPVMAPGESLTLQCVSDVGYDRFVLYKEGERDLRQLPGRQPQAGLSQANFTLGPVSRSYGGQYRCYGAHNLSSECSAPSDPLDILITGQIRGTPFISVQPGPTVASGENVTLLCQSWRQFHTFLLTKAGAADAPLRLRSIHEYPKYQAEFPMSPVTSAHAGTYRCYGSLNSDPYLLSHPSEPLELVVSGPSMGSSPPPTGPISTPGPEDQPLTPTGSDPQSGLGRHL
Kind of assay: flow cytometry, tagged protein on scFv-K562 cells.

The target of assay [14] is T12, KIR2DL4 (Fc, R&D system 2238-KR-050) (UniProt Q99706 24-242, limits assumed).
T12 construct: Bought Fc-tagged protein
T12 sequence (Q99706 24-242 limits assumed): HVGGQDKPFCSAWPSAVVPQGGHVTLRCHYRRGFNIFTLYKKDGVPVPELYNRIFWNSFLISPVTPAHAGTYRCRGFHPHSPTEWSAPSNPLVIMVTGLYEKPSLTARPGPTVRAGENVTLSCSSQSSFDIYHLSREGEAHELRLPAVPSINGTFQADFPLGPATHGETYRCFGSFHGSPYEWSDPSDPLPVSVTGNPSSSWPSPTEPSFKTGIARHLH
Kind of assay: flow cytometry, tagged protein on scFv-K562 cells.

Assay [15] addresses T13, KIR3DL3 (Fc, R&D system 10104-KR-050) (UniProt Q8N743 26-322, limits assumed).
T13 construct: Bought Fc-tagged protein
Briefly: flow cytometry, tagged protein on scFv-K562 cells.

The target of assay [16] is T14, KIR2DL5 (Fc, R&D system 6634-KR-050) (UniProt Q8N109 22-238, limits assumed).
T14 construct: Bought Fc-tagged protein
T14 sequence (Q8N109 22-238 limits assumed): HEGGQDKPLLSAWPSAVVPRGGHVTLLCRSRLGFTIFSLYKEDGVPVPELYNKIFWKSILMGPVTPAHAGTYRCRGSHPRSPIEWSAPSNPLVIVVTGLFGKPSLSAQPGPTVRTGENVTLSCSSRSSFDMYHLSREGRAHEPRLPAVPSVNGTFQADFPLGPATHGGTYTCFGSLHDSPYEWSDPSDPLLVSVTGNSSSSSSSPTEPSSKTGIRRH
Briefly: flow cytometry, tagged protein on scFv-K562 cells.

Assay [17] has as its target T15, NKG2C (Fc, R&D system 138-NK-050) (UniProt P26717 94-231, limits assumed).
T15 construct: Bought Fc-tagged protein
Kind of assay: flow cytometry, tagged protein on scFv-K562 cells.

Assay [18] concerns the target T16, NKG2E (Fc, R&D system 9759-NK-050) (UniProt Q07444 94-240, limits assumed).
T16 construct: Bought Fc-tagged protein
Briefly: flow cytometry, tagged protein on scFv-K562 cells.

The target of assay [19] is CD16b (Fc, R&D system 1597-FC-050) (UniProt O75015 17-200, limits assumed). Kind of assay: flow cytometry, tagged protein on scFv-K562 cells.
In assay [20] the target is T17, NKp30 (Fc, R&D system 1849-NK-025) (UniProt O14931 19-138, limits assumed).
T17 construct: Bought Fc-tagged protein
T17 sequence (looked up): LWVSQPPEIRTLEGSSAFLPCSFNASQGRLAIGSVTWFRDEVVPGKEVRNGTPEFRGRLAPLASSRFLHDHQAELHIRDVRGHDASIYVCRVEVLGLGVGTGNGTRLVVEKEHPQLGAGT
Briefly: flow cytometry, tagged protein on scFv-K562 cells.

For assay [21], the target named is T18, NKp44 (Fc, R&D system 2249-NK-050) (UniProt O95944 22-190, limits assumed).
T18 construct: Bought Fc-tagged protein
T18 sequence (looked up): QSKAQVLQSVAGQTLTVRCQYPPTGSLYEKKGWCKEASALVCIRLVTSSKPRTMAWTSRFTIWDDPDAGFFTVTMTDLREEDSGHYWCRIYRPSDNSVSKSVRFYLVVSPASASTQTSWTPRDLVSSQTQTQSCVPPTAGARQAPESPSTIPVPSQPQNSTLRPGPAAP
Briefly: flow cytometry, tagged protein on scFv-K562 cells.

The target of assay [22] is T19, NKp46 (Fc, R&D system 1850-NK-025) (UniProt O76036 22-258, limits assumed).
T19 construct: Bought Fc-tagged protein
T19 sequence (O76036 22-258 limits assumed): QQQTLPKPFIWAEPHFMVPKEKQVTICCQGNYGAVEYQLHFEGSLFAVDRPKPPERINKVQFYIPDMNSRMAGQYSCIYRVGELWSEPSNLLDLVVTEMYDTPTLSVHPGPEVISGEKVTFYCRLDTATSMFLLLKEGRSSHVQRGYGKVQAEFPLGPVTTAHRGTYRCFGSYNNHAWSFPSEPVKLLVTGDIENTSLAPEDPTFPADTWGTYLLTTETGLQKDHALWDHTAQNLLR
Briefly: flow cytometry, tagged protein on scFv-K562 cells.

Assay [23] addresses T20, KIR2DL1 (Fc, R&D system 1844-KR-050) (UniProt P43626 22-245).
T20 construct: Bought Fc-tagged protein
Briefly: flow cytometry, tagged protein on scFv-K562 cells.

Assay [24] has as its target CD16a (Fc, R&D system 4325-FC-050) (UniProt P08637 17-208). Kind of assay: flow cytometry, tagged protein on scFv-K562 cells.
Assay [25] addresses T21, recombinant KIR2DS4 (extracellular domain-Fc-Avi, in-house) (human).
T21 construct: In-house; IL-2 signal peptide left out; also called soluble KIR2DS4
Kind of assay: flow cytometry, KIR-Fc on scFv-K562 cells.

In assay [26] the target is T22, recombinant KIR2DS1 (extracellular domain-Fc-Avi, in-house) (human).
T22 construct: In-house; IL-2 signal peptide left out; also called soluble KIR2DS1
Briefly: flow cytometry, KIR-Fc on scFv-K562 cells.

Assay [27] concerns the target T23, recombinant KIR2DS2 (extracellular domain-Fc-Avi, in-house) (human).
T23 construct: In-house; IL-2 signal peptide left out; also called soluble KIR2DS2
Kind of assay: flow cytometry, KIR-Fc on scFv-K562 cells.

T1 sequence (chain, as listed by the source): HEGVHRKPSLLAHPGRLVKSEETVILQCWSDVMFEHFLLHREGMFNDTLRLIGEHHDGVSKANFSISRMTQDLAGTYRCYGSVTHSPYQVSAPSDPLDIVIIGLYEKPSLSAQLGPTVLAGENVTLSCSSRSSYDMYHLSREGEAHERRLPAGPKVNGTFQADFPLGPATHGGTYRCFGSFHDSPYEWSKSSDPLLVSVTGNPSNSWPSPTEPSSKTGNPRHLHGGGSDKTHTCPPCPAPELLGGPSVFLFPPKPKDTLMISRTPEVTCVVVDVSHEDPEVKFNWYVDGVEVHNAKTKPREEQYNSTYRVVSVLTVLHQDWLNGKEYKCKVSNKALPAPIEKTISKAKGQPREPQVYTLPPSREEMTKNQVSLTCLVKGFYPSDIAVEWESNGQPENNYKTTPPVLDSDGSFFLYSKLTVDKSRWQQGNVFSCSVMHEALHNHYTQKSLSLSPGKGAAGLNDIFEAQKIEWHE
T2 sequence (Q8NHL6 24-458 limits assumed): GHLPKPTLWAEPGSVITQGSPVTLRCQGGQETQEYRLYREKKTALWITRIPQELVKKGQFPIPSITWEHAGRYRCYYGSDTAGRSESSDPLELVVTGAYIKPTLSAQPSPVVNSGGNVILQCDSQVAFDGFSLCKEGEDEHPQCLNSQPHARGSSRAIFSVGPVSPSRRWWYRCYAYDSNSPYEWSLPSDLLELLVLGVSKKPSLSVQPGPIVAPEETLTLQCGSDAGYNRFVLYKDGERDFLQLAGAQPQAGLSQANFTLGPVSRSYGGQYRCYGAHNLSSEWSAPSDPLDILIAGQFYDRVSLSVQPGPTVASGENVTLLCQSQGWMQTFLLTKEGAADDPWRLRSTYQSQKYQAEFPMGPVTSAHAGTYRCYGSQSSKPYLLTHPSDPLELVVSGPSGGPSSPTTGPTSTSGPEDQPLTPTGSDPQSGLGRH
T15 sequence (P26717 94-231 limits assumed): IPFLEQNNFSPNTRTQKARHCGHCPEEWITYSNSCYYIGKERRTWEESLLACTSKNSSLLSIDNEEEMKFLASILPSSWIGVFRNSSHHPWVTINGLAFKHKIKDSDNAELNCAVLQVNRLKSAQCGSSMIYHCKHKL
T16 sequence (Q07444 94-240 limits assumed): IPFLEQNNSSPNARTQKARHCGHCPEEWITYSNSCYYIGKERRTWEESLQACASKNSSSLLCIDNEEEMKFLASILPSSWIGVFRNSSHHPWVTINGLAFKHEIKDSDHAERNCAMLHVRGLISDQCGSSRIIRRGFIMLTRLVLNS
Chain of CD16a (Fc, R&D system 4325-FC-050) (P08637 17-208 limits assumed): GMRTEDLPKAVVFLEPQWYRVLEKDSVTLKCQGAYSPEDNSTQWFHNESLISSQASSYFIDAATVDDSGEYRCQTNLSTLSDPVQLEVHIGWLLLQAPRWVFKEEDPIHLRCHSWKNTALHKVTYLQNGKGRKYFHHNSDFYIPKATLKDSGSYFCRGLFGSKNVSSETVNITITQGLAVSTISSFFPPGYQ
T23 sequence (chain, as listed by the source): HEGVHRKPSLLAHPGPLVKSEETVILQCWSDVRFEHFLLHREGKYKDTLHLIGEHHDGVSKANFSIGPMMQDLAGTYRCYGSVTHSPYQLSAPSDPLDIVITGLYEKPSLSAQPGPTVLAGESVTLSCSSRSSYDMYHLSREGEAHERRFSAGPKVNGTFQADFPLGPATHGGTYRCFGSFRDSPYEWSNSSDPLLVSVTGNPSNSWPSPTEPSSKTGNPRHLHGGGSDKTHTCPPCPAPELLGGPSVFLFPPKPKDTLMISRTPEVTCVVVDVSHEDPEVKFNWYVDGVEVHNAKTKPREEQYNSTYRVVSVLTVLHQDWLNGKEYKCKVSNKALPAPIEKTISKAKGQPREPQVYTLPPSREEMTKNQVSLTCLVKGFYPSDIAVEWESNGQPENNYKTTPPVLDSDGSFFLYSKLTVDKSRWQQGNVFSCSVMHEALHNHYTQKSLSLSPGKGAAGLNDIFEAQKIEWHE
T13 sequence (Q8N743 26-322 limits assumed): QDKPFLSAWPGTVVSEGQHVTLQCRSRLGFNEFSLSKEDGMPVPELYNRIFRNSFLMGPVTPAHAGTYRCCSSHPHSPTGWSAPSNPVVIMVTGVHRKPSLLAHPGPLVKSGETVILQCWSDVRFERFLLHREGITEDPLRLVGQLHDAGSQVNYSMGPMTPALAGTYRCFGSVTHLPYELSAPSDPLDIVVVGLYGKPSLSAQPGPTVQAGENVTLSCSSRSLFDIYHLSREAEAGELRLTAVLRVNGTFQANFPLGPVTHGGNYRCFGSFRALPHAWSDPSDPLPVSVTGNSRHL
T21 sequence (chain, as listed by the source): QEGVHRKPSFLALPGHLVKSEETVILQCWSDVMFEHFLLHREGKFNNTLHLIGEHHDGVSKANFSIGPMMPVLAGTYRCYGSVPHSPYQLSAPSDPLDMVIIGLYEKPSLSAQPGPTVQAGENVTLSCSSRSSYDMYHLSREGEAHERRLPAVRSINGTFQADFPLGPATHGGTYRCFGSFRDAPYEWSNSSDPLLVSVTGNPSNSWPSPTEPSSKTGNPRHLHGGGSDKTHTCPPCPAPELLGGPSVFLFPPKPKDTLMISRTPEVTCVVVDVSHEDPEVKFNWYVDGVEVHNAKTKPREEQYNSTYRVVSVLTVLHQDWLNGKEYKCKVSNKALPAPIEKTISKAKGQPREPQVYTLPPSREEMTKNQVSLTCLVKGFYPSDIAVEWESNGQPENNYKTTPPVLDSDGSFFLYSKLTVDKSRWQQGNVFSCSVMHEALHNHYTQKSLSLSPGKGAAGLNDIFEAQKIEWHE
T8 sequence (P43629 22-340 limits assumed): as the sequence (Q14943 22-340 limits assumed, change not shown) above, with V47I, G58S, M92V, R136K, W138G, S163P, R166L, L199P, L315P counted along it

B1: membrane-type a2DL1-DS11 scFv (scFv)
scFv: DYKDDDDKGSGEVQLVQSGAEVKKPGSSVKVSCKASGGTFSSYAISWVRQAPGQGLEWMGGIIPIFGTANYAQKFQGRVTITADESTSTAYMELSSLRSEDTAVYYCARGLRFFDYWGQGTLVTVSSGGGGSGGGGSGGGGSQSVLTQPPSASGTPGQRVTISCSGSSSNIGTNTVNWYQQFPGTAPKLLIYSNNQRPSGVPDRFSGSKSGTSGSLAISGLQSEDEADYYCAAWDDSLQGWLFGGGTKLTVLALSNSIMYFSHFVPVFLPAKPTTTPAPRPPTPAPTIASQPLSLRPEACRPAAGGAVHTRGLDFACDIYIWAPLAGTCGVLLLSLVITLYCNH
notes: On K562 cells
In the case of B1, the binding result in assay [1] is listed as “binds”.

B2: membrane-type a2DL1-DS1 scFv (scFv)
scFv: DYKDDDDKGSGQVQLQQSGPELVRASQTLSLTCAISGDSVSSNSATWNWIRQSPSRGLEWLGRTYYRSKWYNDYAVSVKSRITINPDTSKNQFSLQLNSVTPEDTAVYYCARDSPSYGRGVFDIWGQGTLVTVSSGGGGSGGGGSGGGGSDIVMTQSPDSLAVSLGERATINCKSSQSVLYSSNNKNYLAWYQQKPGQPPKLLIYWASTRESGVPDRFSGSGSGTDFTLTISSLQAEDVAVYYCQQYYSPPYTFGQGTKLEIKALSNSIMYFSHFVPVFLPAKPTTTPAPRPPTPAPTIASQPLSLRPEACRPAAGGAVHTRGLDFACDIYIWAPLAGTCGVLLLSLVITLYCNH
notes: On K562 cells
On to B2, for which the binding result in [1] is “binds”.

B3: membrane-type a2DL2/3-DS4 scFv (scFv)
scFv: DYKDDDDKGSGEVQLVQSGAEVKKPGSSVKVSCKASGGTFSSYAISWVRQAPGQGLEWMGGIIPIFGTANYAQKFQDRVTITADKSTSTAYMELSSLRSEDTAVYYCARGSRNFDYWGQGTLVTVSSGGGGSGGGGSGGGGSAIRMTQSPSSLSASVGDRVTIPCRASQSIGSYLNWYQQKPGKAPNLLIYAASSLQSGVPSRFSGSGSGTDFTLTISSLQPEDFATYYCQQSYSTPLTFGGGTKVDIKALSNSIMYFSHFVPVFLPAKPTTTPAPRPPTPAPTIASQPLSLRPEACRPAAGGAVHTRGLDFACDIYIWAPLAGTCGVLLLSLVITLYCNH
notes: On K562 cells
Consider B3, for which the binding result in assay [2], in [3], in assay [4], in assay [5], in [6] and in assay [7] was “no binding (tested: 0.1 µM)” throughout. Moreover, the binding result in [8], in [9], in [10], in [11], in [12] and in assay [13] was “no binding (tested: 0.1 µM)” each time. For the same molecule, the binding result in assay [14], in assay [15], in assay [16], in assay [17], in assay [18] and in [19] was “no binding (tested: 0.1 µM)” each time. The binding result in assay [20], in assay [21], in [22], in assay [23], in [24] and in assay [25] was “no binding (tested: 0.1 µM)” throughout. Besides, the binding result in assay [26] and in [27] was “no binding (tested: 0.1 µM)” each time.
